Where a chain is given by its changes, count along the chain named. Numbers in names are those of the source.

The labels stand for the following.
T1: mouse TIGIT-Fc (mouse, UniProt P86176 29-148)
T1 construct: extracellular domain; also called TIGIT-ECD; not shown: Fc
T1 sequence (looked up): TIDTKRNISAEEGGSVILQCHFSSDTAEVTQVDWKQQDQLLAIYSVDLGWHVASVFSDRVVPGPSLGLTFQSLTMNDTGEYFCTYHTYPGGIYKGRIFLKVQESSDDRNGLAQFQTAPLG

T2: biotinylated human TIGIT (human, UniProt Q495A1 22-141, biotinylated (EZ-Link NHS-PEG4-biotin kit))
T2 construct: extracellular domain; also called TIGIT-ECD
T2 sequence (looked up): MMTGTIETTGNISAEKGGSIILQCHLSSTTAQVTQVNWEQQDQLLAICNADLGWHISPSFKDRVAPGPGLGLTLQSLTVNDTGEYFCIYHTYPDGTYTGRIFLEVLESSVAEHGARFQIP

T3: human TIGIT fused to a beta galactosidase portion, on YTS cells (YTS_hTIGIT/hGrb2) (human, UniProt Q495A1 22-244)
T3 sequence (looked up): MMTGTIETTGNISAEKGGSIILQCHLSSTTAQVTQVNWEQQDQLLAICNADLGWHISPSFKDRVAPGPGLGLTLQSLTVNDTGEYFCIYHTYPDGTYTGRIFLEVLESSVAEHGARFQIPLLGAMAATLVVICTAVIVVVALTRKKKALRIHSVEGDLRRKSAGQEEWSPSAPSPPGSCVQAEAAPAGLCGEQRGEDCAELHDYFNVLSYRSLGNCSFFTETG

T4: His-tagged recombinant Human TIGIT (human, UniProt Q495A1 22-141)
T4 construct: coated antigen of the direct ELISA; not shown: His tag
T4 sequence (looked up): T2 sequence (looked up)

T5: His-tagged recombinant Mouse TIGIT (mouse, UniProt P86176 29-148, limits assumed)
T5 construct: coated antigen of the direct ELISA; not shown: His tag
T5 sequence (looked up): T1 sequence (looked up)

T6: human TIGIT fused to a beta galactosidase fragment, expressed on YTS cells (human, UniProt Q495A1 22-244)
T6 sequence (looked up): T3 sequence (looked up)

T7: mouse TIGIT-Fc (mouse, UniProt P86176 29-148)
T7 construct: extracellular domain; also called mouse TIGIT extra cellular domain
T7 sequence (looked up): T1 sequence (looked up)

T8: biotinylated human TIGIT (human, UniProt Q495A1 22-141, biotinylated (EZ-Link NHS-PEG4-biotin kit))
T8 construct: extracellular domain; also called human TIGIT extra cellular domain; TIGIT-ECD
T8 sequence (looked up): T2 sequence (looked up)

B1: Ab53i1 (antibody, V domains shown)
VH: EVQLLESGGGLVQPGGSLRLSCAASGFTFSSYSMHWVRQAPGKGLEWVASIKSSSSNKYYADSVKGRFTISRDNSKNTLYLQMNSLRAEDTAVYYCARGPYDVWLDYWGQGTLVTVSS
VL: not shown
notes: mIgG2a of Ab53
B2: Ab40i5 (antibody, V domains shown)
VH: B1 VH with H35N, S50G, S56G, L105M
VL: not shown
B3: Ab53i3 (antibody, V domains shown)
VH: B1 VH with S33G
VL: not shown
notes: hIgG1 of Ab53, S33G
B4: Ab53i4 (antibody, V domains shown)
VH: B1 VH with S33G
VL: not shown
notes: mIgG2a of Ab53, S33G
B5: Ab53i6 (antibody, V domains shown)
VH: B1 VH with S33G, S53Y
VL: not shown
B6: Ab53i2 (antibody, V domains shown)
VH: B1 VH
VL: not shown
notes: hIgG1 of Ab53
B7: Ab53 (Fab, V domains shown)
VH: B1 VH
VL: not shown
notes: clone from a phage library of monovalent human Fabs; also called clone Ab53
B8: Ab40 (Fab, V domains shown)
VH: B1 VH with S33G, H35N, S50G, S53Y, S56G, L105M
VL: not shown
notes: clone from a phage library of monovalent human Fabs; also called clone Ab40
B9: Ab48 (Fab, V domains shown)
VH: B1 VH with H35N, S50N, S55G, N57S, K58T, Y59S, L105M
VL: not shown
notes: clone from a phage library of monovalent human Fabs; also called clone Ab48
B10: Ab1 (Fab, V domains shown)
VH: EVQLLESGGGLVQPGGSLRLSCAASGFTFSSYAMHWVRQAPGKGLEWVSGISSNGGSTSYADSVKGRFTISRDNSKNTLYLQMNSLRAEDTAVYYCARVPYSVWIDYWGQGTLVTVSS
VL: not shown
notes: clone from a phage library of monovalent human Fabs; also called clone Ab1
B11: Ab117 (Fab, V domains shown)
VH: B1 VH with S33A, H35S, S50A, S55A, N57T, K58I, G99E, D102S, L105M
VL: not shown
notes: clone from a phage library of monovalent human Fabs; also called clone Ab117

The first assay deals with T1, mouse TIGIT-Fc. Put plainly: comp. ELISA vs PVR. The protocol: (§1) Antibodies were serially diluted in a 10-point curve starting at 1 μM in 3-fold steps. […] Units are in microM.
In general terms: An ELISA detects its analyte on a solid surface through an enzyme-linked reagent.
One may read the IC50 as the concentration at which inhibition is half-maximal. A high value points to weaker potency. Regarding B1, the half-maximal inhibitory concentration (IC50) was found to be 4.2 nM.
On the same count and under the same terms, the figure for B2 is 16.9 nM.
In turn, B3 registered a half-inhibitory concentration (IC50) of 18.5 nM.
Regarding B4, it took 48.2 nM to reach half-maximal inhibition (IC50).
On the same count and under the same terms, under B5 stands above 1000 nM; under B6, 1.5 nM.

The target of the next assay is T2, biotinylated human TIGIT. In words: comp. ELISA vs PVR. Here is the method:
as §1
With B1, the midpoint of inhibition, the IC50, lay at 1.6 nM.
On the same count and under the same terms, the figure for B2 is 4.2 nM; for B3 it is 8.3 nM; for B4 it is 6.7 nM.
Take B5: the 50% inhibitory concentration (IC50) was 1.7 nM.
The same measure, in the same setting: the figure for B6 is 0.6 nM.

In a further assay the target is T3, human TIGIT fused to a beta …. Put plainly: cell-based or functional assay.
As to B1, the “YTS_hTIGI/hGrbs_EFC_Antagonism, 221_hPVR/ICAM” value was determined as 0.0259 µM.
Consider B2, for which the “YTS_hTIGI/hGrbs_EFC_Agonism, 221_WT” value worked out at 0.0358 µM and the “YTS_hTIGI/hGrbs_EFC_Antagonism, 221_hPVR/ICAM” value worked out at 0.238 µM.
The matching figures for B3: 0.0042 µM and above 1 µM.
The matching figures for B4: 0.0185 µM and 0.45 µM.
For B5, the “YTS_hTIGI/hGrbs_EFC_Agonism, 221_WT” value turned out to be 0.0077 µM and the “YTS_hTIGI/hGrbs_EFC_Antagonism, 221_hPVR/ICAM” value turned out to be 0.0363 µM.
Consider B6, for which the “YTS_hTIGI/hGrbs_EFC_Antagonism, 221_hPVR/ICAM” value is 0.0675 µM.

The target in the next assay is T4, His-tagged recombinant Human TIGIT. In words: ELISA. The protocol:
(§2) Binding affinities for antigen binding to anti-TIGIT monoclonal antibodies were determined by ELISA. […] Antibodies to be tested were diluted to 1 μM in PBS buffer containing 1% BSA and diluted 3-fold in a 10-point curve. […] Detection of the secondary antibody was determined using streptavidin-HRP and TMB reagent. All assays were performed at room temperature. Curve-fitting software was used to determine the EC₅₀ for each antibody.
In general, EC50 refers to the midpoint of the concentration-response curve. Regarding B1, the concentration giving a half-maximal response (EC50) turned out to be 0.3 nM.
Same read-out and setting: under B2 stands 0.2 nM; under B3, 0.8 nM.
On the same count and under the same terms, the figure for B4 is 1.1 nM; for B5 it is 0.2 nM.
On the same count and under the same terms, the figure for B6 is 0.1 nM.

In another assay the target is T5, His-tagged recombinant Mouse TIGIT. In words: ELISA. The protocol:
as §2
With B1, the 50% effective concentration (EC50) came out at 0.4 nM.
With B2, the EC50 amounted to 2.4 nM.
Turning to B3, the EC50 came to 6.3 nM.
Same read-out and setting: the figure for B4 is 4.6 nM; for B5 it is 32.3 nM.
The same measure, in the same setting: the figure for B6 is 0.2 nM.

The target of the next assay is T6, human TIGIT fused to a beta …. Put plainly: cell-based or functional assay.
As for B7, the “IC50 of inhibition of Grb2 recruitment (YTS_hTIGIT/hGrb2, 221_hPVR/ICAM, 11 pt)” value worked out at 30.3 nM.
Same read-out and setting: the figure for B8 is 2.3 nM.

The next assay shares this target. In words: cell-based or functional assay. The source holds these as a separate data set.
On to B9, for which the “EC50 of induced dimerization (YTS_hTIGIT/hTIGIT, 11 pt)” value came to 477 nM.
Same read-out and setting: the figure for B7 is 2.7 nM; for B8 it is 9.5 nM.

The target in a further assay is T7, mouse TIGIT-Fc. Put plainly: competitive ELISA, mTIGIT-Fc to coated PVR. The protocol: as §1
On to B9, for which the 50% inhibitory concentration (IC50) was 64.7 nM.
Same read-out and setting: under B7 stands 35.3 nM; under B8, above 1000 nM.
Same read-out and setting: under B10 stands 632 nM; under B11, 23.4 nM.

A further assay concerns the target T8, biotinylated human TIGIT. In words: competitive ELISA, biotin-hTIGIT to coated PVR. Here is the method: as §1
In turn, B9 returned an IC50 of 111 nM.
The same measure, in the same setting: under B7 stands 9 nM; under B8, 3.8 nM; under B10, 89.9 nM.

Values taken from patent publication US20200339678A1 (RIGEL PHARMACEUTICALS, published 2020).
